The source of these data is paper PMC2868900.

Bounds are passed on as bounds.

thymidylate synthase (TS) (zebrafish), sequence (A0ACM8Q3Q5 entry or part of it): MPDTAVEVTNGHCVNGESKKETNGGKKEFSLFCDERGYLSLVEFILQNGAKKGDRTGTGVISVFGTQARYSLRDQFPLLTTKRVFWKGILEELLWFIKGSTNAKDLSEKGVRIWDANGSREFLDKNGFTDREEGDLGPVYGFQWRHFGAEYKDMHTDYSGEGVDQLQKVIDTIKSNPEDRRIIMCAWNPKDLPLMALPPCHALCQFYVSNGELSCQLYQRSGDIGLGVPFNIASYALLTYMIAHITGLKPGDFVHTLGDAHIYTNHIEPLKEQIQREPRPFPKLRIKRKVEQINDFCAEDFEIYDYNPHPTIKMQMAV

One data set concerns the target thymidylate synthase (TS) (zebrafish) (UniProt A0ACM8Q3Q5). Nature of the data set: competition EMSA. Conditions: 37 C, 10 min; 100 ng TS (200 ng in Fig. 5B legend), 1 ng 32P TS mRNA; non-denaturing 5% acrylamide gel (60:1); binding buffer, salt and pH not given (cited ref.). A general note: A gel shift assay detects complexes by their altered migration in electrophoresis.
For the substance TS1-36, the half-maximal inhibitory concentration (IC50) is 0.6 nM.
For TS1-72, the IC50 stood at 0.65 nM.
With TS1-145, the IC50 was found to be 0.52 nM.
On the same count and under the same terms, the result for TS1-290 reads 0.48 nM; that for TS1-580, 0.48 nM; that for TS37-74 (TS37-72 in Methods), more than 1000 nM.
On the same count and under the same terms, the figure for TS73-145 is more than 1000 nM; for TS146-290 it is more than 1000 nM; for TS291-580 it is more than 1000 nM.
On the same count and under the same terms, the figure for TS581-1163 is more than 1000 nM.
For the substance full-length TS mRNA (TS1-1163), the IC50 stood at 0.5 nM.

Staying with this data set, now noted: vs 32P full-length TS mRNA; 100-fold excess also did not compete (Fig. 3); 37 C, 10 min; 100 ng TS (200 ng in Fig. 5B legend), 1 ng 32P TS mRNA; non-denaturing 5% acrylamide gel (60:1); binding buffer, salt and pH not given (cited ref.).
In the case of luciferase mRNA, the IC50 was more than 1000 nM.

What is called IC50 is the point on the concentration scale where inhibition reaches its midpoint.
